Seven variants from IntAct's records for PubMed 28572511 can be followed below.

B1: Lysosomal cobalamin transport escort protein LMBD1 (Homo sapiens), Q9NUN5 (parent)
chain: MATSGAASAELVIGWCIFGLLLLAILAFCWIYVRKYQSRRESEVVSTITAIFSLAIALITSALLPVDIFLVSYMKNQNGTFKDWANANVSRQIEDTVLYGYYTLYSVILFCVFFWIPFVYFYYEEKDDDDTSKCTQIKTALKYTLGFVVICALLLLVGAFVPLNVPNNKNSTEWEKVKSLFEELGSSHGLAALSFSISSLTLIGMLAAITYTAYGMSALPLNLIKGTRSAAYERLENTEDIEEVEQHIQTIKSKSKDGRPLPARDKRALKQFEERLRTLKKRERHLEFIENSWWTKFCGALRPLKIVWGIFFILVALLFVISLFLSNLDKALHSAGIDSGFIIFGANLSNPLNMLLPLLQTVFPLDYILITIIIMYFIFTSMAGIRNIGIWFFWIRLYKIRRGRTRPQALLFLCMILLLIVLHTSYMIYSLAPQYVMYGSQNYLIETNITSDNHKGNSTLSVPKRCDADAPEDQCTVTRTYLFLHKFWFFSAAYYFGNWAFLGVFLIGLIVSCCKGKKSVIEGVDEDSDISDDEPSVYSA
partner: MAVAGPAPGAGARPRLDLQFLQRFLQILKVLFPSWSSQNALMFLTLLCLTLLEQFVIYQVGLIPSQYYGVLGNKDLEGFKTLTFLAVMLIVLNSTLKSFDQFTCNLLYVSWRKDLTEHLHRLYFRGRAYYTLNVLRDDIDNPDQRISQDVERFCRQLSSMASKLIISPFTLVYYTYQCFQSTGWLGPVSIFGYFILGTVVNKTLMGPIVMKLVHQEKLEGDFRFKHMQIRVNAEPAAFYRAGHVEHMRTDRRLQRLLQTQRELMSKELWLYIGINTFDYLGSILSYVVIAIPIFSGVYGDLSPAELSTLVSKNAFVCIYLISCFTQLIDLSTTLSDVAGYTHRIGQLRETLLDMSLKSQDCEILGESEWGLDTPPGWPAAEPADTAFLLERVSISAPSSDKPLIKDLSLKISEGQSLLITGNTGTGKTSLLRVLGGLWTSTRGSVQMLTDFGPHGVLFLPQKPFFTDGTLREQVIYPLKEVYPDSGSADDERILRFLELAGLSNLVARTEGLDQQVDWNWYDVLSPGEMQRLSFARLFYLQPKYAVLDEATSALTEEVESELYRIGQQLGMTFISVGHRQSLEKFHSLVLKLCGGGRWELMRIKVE
B2: Lysosomal cobalamin transporter ABCD4 (Homo sapiens), O14678 (parent)
chain: B1 partner
partner: B1 chain

In the first assay the parent is B1. The following applies: with abcd4_human ABCD4, O14678.
As for Y232A, the “effect of a mutation on the interaction” value is given as “decreasing interaction strength”.

Another assay covers variants of B2. Conditions: with lmbd1_human LMBRD1, Q9NUN5.
Take G426A: the “effect of a mutation on the interaction” value was “decreasing interaction strength”.
In the case of R432Q, the “effect of a mutation on the interaction” value was “decreasing interaction strength”.
Same read-out and setting: the entry for K427L is “decreasing interaction strength”.
In the case of N141K, the “effect of a mutation on the interaction” value is recorded as “decreasing interaction strength”.
As for D548N, the “effect of a mutation on the interaction” value is reported as “decreasing interaction strength”.
Still for that read-out and setting: in the case of G426A;K427L it was “disrupting interaction strength”.

In another assay the parent is B2. Conditions: with lmbd1_human LMBRD1, Q9NUN5. The source holds these as a separate data set.
For the variant G426A;K427L, the “effect of a mutation on the interaction” value is “decreasing interaction strength”.
